Biological target: feline FcRn complex (FcRn-α subunit and β-microglobulin), biotin labeled (feline)
Test: SPR, pH 6

Molecule | Kd
feline IgG1a S434Q (antibody) | 0.0048 µM
feline IgG1a wild-type (WT) (antibody, part only; not given: Variable domains, not shown: another chain or arm of the molecule) constant: ASTTAPSVFPLAPSCGTTSGATVALACLVLGYFPEPVTVSWNSGALTSGVHTFPAVLQASGLYSLSSMVTVPSSRWLSDTFTCNVAHPPSNTKVDKTVRKTDHPPGPKPCDCPKCPPPEMLGGPSIFIFPPKPKDTLSISRTPEVTCLVVDLGPDDSDVQITWFVDNTQVYTAKTSPREEQFNSTYRVVSVLPILHQDWLKGKEFKCKVNSKSLPSPIERTISKAKGQPHEPQVYVLPPAQEELSRNKVSVTCLIKSFHPPDIAVEWEITGQPEPENNYRTTPPQLDSDGTYFVYSKLSVDRSHWQRGNTYTCSVSHEALHSHHTQKSLTQSPGK | 0.0202 µM
feline IgG1a A378Q (antibody, part only; not given: Variable domains, not shown: another chain or arm of the molecule) constant: ASTTAPSVFPLAPSCGTTSGATVALACLVLGYFPEPVTVSWNSGALTSGVHTFPAVLQASGLYSLSSMVTVPSSRWLSDTFTCNVAHPPSNTKVDKTVRKTDHPPGPKPCDCPKCPPPEMLGGPSIFIFPPKPKDTLSISRTPEVTCLVVDLGPDDSDVQITWFVDNTQVYTAKTSPREEQFNSTYRVVSVLPILHQDWLKGKEFKCKVNSKSLPSPIERTISKAKGQPHEPQVYVLPPAQEELSRNKVSVTCLIKSFHPPDIQVEWEITGQPEPENNYRTTPPQLDSDGTYFVYSKLSVDRSHWQRGNTYTCSVSHEALHSHHTQKSLTQSPGK | 0.049 µM
feline IgG1a A378R (antibody, part only; not given: Variable domains, not shown: another chain or arm of the molecule) constant: ASTTAPSVFPLAPSCGTTSGATVALACLVLGYFPEPVTVSWNSGALTSGVHTFPAVLQASGLYSLSSMVTVPSSRWLSDTFTCNVAHPPSNTKVDKTVRKTDHPPGPKPCDCPKCPPPEMLGGPSIFIFPPKPKDTLSISRTPEVTCLVVDLGPDDSDVQITWFVDNTQVYTAKTSPREEQFNSTYRVVSVLPILHQDWLKGKEFKCKVNSKSLPSPIERTISKAKGQPHEPQVYVLPPAQEELSRNKVSVTCLIKSFHPPDIRVEWEITGQPEPENNYRTTPPQLDSDGTYFVYSKLSVDRSHWQRGNTYTCSVSHEALHSHHTQKSLTQSPGK | 0.0362 µM
feline IgG1a A378S (antibody, part only; not given: Variable domains, not shown: another chain or arm of the molecule) constant: ASTTAPSVFPLAPSCGTTSGATVALACLVLGYFPEPVTVSWNSGALTSGVHTFPAVLQASGLYSLSSMVTVPSSRWLSDTFTCNVAHPPSNTKVDKTVRKTDHPPGPKPCDCPKCPPPEMLGGPSIFIFPPKPKDTLSISRTPEVTCLVVDLGPDDSDVQITWFVDNTQVYTAKTSPREEQFNSTYRVVSVLPILHQDWLKGKEFKCKVNSKSLPSPIERTISKAKGQPHEPQVYVLPPAQEELSRNKVSVTCLIKSFHPPDISVEWEITGQPEPENNYRTTPPQLDSDGTYFVYSKLSVDRSHWQRGNTYTCSVSHEALHSHHTQKSLTQSPGK | 0.0483 µM
feline IgG1a A378T (antibody, part only; not given: Variable domains, not shown: another chain or arm of the molecule; small tags and cut ends) constant: ASTTAPSVFPLAPSCGTTSGATVALACLVLGYFPEPVTVSWNSGALTSGVHTFPAVLQASGLYSLSSMVTVPSSRWLSDTFTCNVAHPPSNTKVDKTVRKTDHPPGPKPCDCPKCPPPEMLGGPSIFIFPPKPKDTLSISRTPEVTCLVVDLGPDDSDVQITWFVDNTQVYTAKTSPREEQFNSTYRVVSVLPILHQDWLKGKEFKCKVNSKSLPSPIERTISKAKGQPHEPQVYVLPPAQEELSRNKVSVTCLIKSFHPPDITVEWEITGQPEPENNYRTTPPQLDSDGTYFVYSKLSVDRSHWQRGNTYTCSVSHEALHSHHTQKSLTQSPGK | 0.0592 µM
feline IgG1a A378V (antibody, part only; not given: Variable domains, not shown: another chain or arm of the molecule; small tags and cut ends) constant: ASTTAPSVFPLAPSCGTTSGATVALACLVLGYFPEPVTVSWNSGALTSGVHTFPAVLQASGLYSLSSMVTVPSSRWLSDTFTCNVAHPPSNTKVDKTVRKTDHPPGPKPCDCPKCPPPEMLGGPSIFIFPPKPKDTLSISRTPEVTCLVVDLGPDDSDVQITWFVDNTQVYTAKTSPREEQFNSTYRVVSVLPILHQDWLKGKEFKCKVNSKSLPSPIERTISKAKGQPHEPQVYVLPPAQEELSRNKVSVTCLIKSFHPPDIVVEWEITGQPEPENNYRTTPPQLDSDGTYFVYSKLSVDRSHWQRGNTYTCSVSHEALHSHHTQKSLTQSPGK | 0.0429 µM
feline IgG1a A378W (antibody, part only; not given: Variable domains, not shown: another chain or arm of the molecule; small tags and cut ends) constant: ASTTAPSVFPLAPSCGTTSGATVALACLVLGYFPEPVTVSWNSGALTSGVHTFPAVLQASGLYSLSSMVTVPSSRWLSDTFTCNVAHPPSNTKVDKTVRKTDHPPGPKPCDCPKCPPPEMLGGPSIFIFPPKPKDTLSISRTPEVTCLVVDLGPDDSDVQITWFVDNTQVYTAKTSPREEQFNSTYRVVSVLPILHQDWLKGKEFKCKVNSKSLPSPIERTISKAKGQPHEPQVYVLPPAQEELSRNKVSVTCLIKSFHPPDIWVEWEITGQPEPENNYRTTPPQLDSDGTYFVYSKLSVDRSHWQRGNTYTCSVSHEALHSHHTQKSLTQSPGK | 0.091 µM
feline IgG1a A378Y (antibody, part only; not given: Variable domains, not shown: another chain or arm of the molecule; small tags and cut ends) constant: ASTTAPSVFPLAPSCGTTSGATVALACLVLGYFPEPVTVSWNSGALTSGVHTFPAVLQASGLYSLSSMVTVPSSRWLSDTFTCNVAHPPSNTKVDKTVRKTDHPPGPKPCDCPKCPPPEMLGGPSIFIFPPKPKDTLSISRTPEVTCLVVDLGPDDSDVQITWFVDNTQVYTAKTSPREEQFNSTYRVVSVLPILHQDWLKGKEFKCKVNSKSLPSPIERTISKAKGQPHEPQVYVLPPAQEELSRNKVSVTCLIKSFHPPDIYVEWEITGQPEPENNYRTTPPQLDSDGTYFVYSKLSVDRSHWQRGNTYTCSVSHEALHSHHTQKSLTQSPGK | 0.0696 µM
feline IgG1a S252A (antibody, part only; not given: Variable domains, not shown: another chain or arm of the molecule; small tags and cut ends) constant: ASTTAPSVFPLAPSCGTTSGATVALACLVLGYFPEPVTVSWNSGALTSGVHTFPAVLQASGLYSLSSMVTVPSSRWLSDTFTCNVAHPPSNTKVDKTVRKTDHPPGPKPCDCPKCPPPEMLGGPSIFIFPPKPKDTLAISRTPEVTCLVVDLGPDDSDVQITWFVDNTQVYTAKTSPREEQFNSTYRVVSVLPILHQDWLKGKEFKCKVNSKSLPSPIERTISKAKGQPHEPQVYVLPPAQEELSRNKVSVTCLIKSFHPPDIAVEWEITGQPEPENNYRTTPPQLDSDGTYFVYSKLSVDRSHWQRGNTYTCSVSHEALHSHHTQKSLTQSPGK | 0.0271 µM
feline IgG1a S252C (antibody, part only; not given: Variable domains, not shown: another chain or arm of the molecule; small tags and cut ends) constant: ASTTAPSVFPLAPSCGTTSGATVALACLVLGYFPEPVTVSWNSGALTSGVHTFPAVLQASGLYSLSSMVTVPSSRWLSDTFTCNVAHPPSNTKVDKTVRKTDHPPGPKPCDCPKCPPPEMLGGPSIFIFPPKPKDTLCISRTPEVTCLVVDLGPDDSDVQITWFVDNTQVYTAKTSPREEQFNSTYRVVSVLPILHQDWLKGKEFKCKVNSKSLPSPIERTISKAKGQPHEPQVYVLPPAQEELSRNKVSVTCLIKSFHPPDIAVEWEITGQPEPENNYRTTPPQLDSDGTYFVYSKLSVDRSHWQRGNTYTCSVSHEALHSHHTQKSLTQSPGK | 0.922 µM
feline IgG1a S252D (antibody, part only; not given: Variable domains, not shown: another chain or arm of the molecule; small tags and cut ends) constant: ASTTAPSVFPLAPSCGTTSGATVALACLVLGYFPEPVTVSWNSGALTSGVHTFPAVLQASGLYSLSSMVTVPSSRWLSDTFTCNVAHPPSNTKVDKTVRKTDHPPGPKPCDCPKCPPPEMLGGPSIFIFPPKPKDTLDISRTPEVTCLVVDLGPDDSDVQITWFVDNTQVYTAKTSPREEQFNSTYRVVSVLPILHQDWLKGKEFKCKVNSKSLPSPIERTISKAKGQPHEPQVYVLPPAQEELSRNKVSVTCLIKSFHPPDIAVEWEITGQPEPENNYRTTPPQLDSDGTYFVYSKLSVDRSHWQRGNTYTCSVSHEALHSHHTQKSLTQSPGK | 0.0935 µM
feline IgG1a S252E (antibody, part only; not given: variable domains, not shown: another chain or arm of the molecule) constant: ASTTAPSVFPLAPSCGTTSGATVALACLVLGYFPEPVTVSWNSGALTSGVHTFPAVLQASGLYSLSSMVTVPSSRWLSDTFTCNVAHPPSNTKVDKTVRKTDHPPGPKPCDCPKCPPPEMLGGPSIFIFPPKPKDTLEISRTPEVTCLVVDLGPDDSDVQITWFVDNTQVYTAKTSPREEQFNSTYRVVSVLPILHQDWLKGKEFKCKVNSKSLPSPIERTISKAKGQPHEPQVYVLPPAQEELSRNKVSVTCLIKSFHPPDIAVEWEITGQPEPENNYRTTPPQLDSDGTYFVYSKLSVDRSHWQRGNTYTCSVSHEALHSHHTQKSLTQSPGK | 0.163 µM
feline IgG1a S252G (antibody, part only; not given: Variable domains, not shown: another chain or arm of the molecule) constant: ASTTAPSVFPLAPSCGTTSGATVALACLVLGYFPEPVTVSWNSGALTSGVHTFPAVLQASGLYSLSSMVTVPSSRWLSDTFTCNVAHPPSNTKVDKTVRKTDHPPGPKPCDCPKCPPPEMLGGPSIFIFPPKPKDTLGISRTPEVTCLVVDLGPDDSDVQITWFVDNTQVYTAKTSPREEQFNSTYRVVSVLPILHQDWLKGKEFKCKVNSKSLPSPIERTISKAKGQPHEPQVYVLPPAQEELSRNKVSVTCLIKSFHPPDIAVEWEITGQPEPENNYRTTPPQLDSDGTYFVYSKLSVDRSHWQRGNTYTCSVSHEALHSHHTQKSLTQSPGK | 0.0498 µM
feline IgG1a S252I (antibody, part only; not given: Variable domains, not shown: another chain or arm of the molecule) constant: ASTTAPSVFPLAPSCGTTSGATVALACLVLGYFPEPVTVSWNSGALTSGVHTFPAVLQASGLYSLSSMVTVPSSRWLSDTFTCNVAHPPSNTKVDKTVRKTDHPPGPKPCDCPKCPPPEMLGGPSIFIFPPKPKDTLIISRTPEVTCLVVDLGPDDSDVQITWFVDNTQVYTAKTSPREEQFNSTYRVVSVLPILHQDWLKGKEFKCKVNSKSLPSPIERTISKAKGQPHEPQVYVLPPAQEELSRNKVSVTCLIKSFHPPDIAVEWEITGQPEPENNYRTTPPQLDSDGTYFVYSKLSVDRSHWQRGNTYTCSVSHEALHSHHTQKSLTQSPGK | 0.156 µM
feline IgG1a S252K (antibody, part only; not given: variable domains and light chain, not shown: another chain or arm of the molecule) constant: ASTTAPSVFPLAPSCGTTSGATVALACLVLGYFPEPVTVSWNSGALTSGVHTFPAVLQASGLYSLSSMVTVPSSRWLSDTFTCNVAHPPSNTKVDKTVRKTDHPPGPKPCDCPKCPPPEMLGGPSIFIFPPKPKDTLKISRTPEVTCLVVDLGPDDSDVQITWFVDNTQVYTAKTSPREEQFNSTYRVVSVLPILHQDWLKGKEFKCKVNSKSLPSPIERTISKAKGQPHEPQVYVLPPAQEELSRNKVSVTCLIKSFHPPDIAVEWEITGQPEPENNYRTTPPQLDSDGTYFVYSKLSVDRSHWQRGNTYTCSVSHEALHSHHTQKSLTQSPGK | 0.0537 µM
feline IgG1a S252L (antibody, part only; not given: Variable domains, not shown: another chain or arm of the molecule) constant: ASTTAPSVFPLAPSCGTTSGATVALACLVLGYFPEPVTVSWNSGALTSGVHTFPAVLQASGLYSLSSMVTVPSSRWLSDTFTCNVAHPPSNTKVDKTVRKTDHPPGPKPCDCPKCPPPEMLGGPSIFIFPPKPKDTLLISRTPEVTCLVVDLGPDDSDVQITWFVDNTQVYTAKTSPREEQFNSTYRVVSVLPILHQDWLKGKEFKCKVNSKSLPSPIERTISKAKGQPHEPQVYVLPPAQEELSRNKVSVTCLIKSFHPPDIAVEWEITGQPEPENNYRTTPPQLDSDGTYFVYSKLSVDRSHWQRGNTYTCSVSHEALHSHHTQKSLTQSPGK | 0.0707 µM

Source: patent US20240400708A1
